Test: soluble fraction after stress (log2 fold change); higher = more stays soluble; pooled small domains, quantitative proteomics
Conditions: stress: 75 degC
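Also: 20 min heating vs room temperature control held 20 min.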

Row | Sequence | soluble fraction (log2)
1 | HMETFGLSQRELQILSQLHKGQPLKEFAASLFITESTLKTHLSAIYRKMSVKNRVQAIEKAKQSGL | -1.4
2 | HMETGEDSLRRYFNSLPGSASKREILEDNPTVSQRTTERILQKLQAEGFIEKVGAARATRYRKVKQ | 0.259
3 | HMETGELQQILEDVFSKNIGIVQDKREAAFSILMGMIMAKSRGRADGALVSTLLKKKLTEFLATSDQVR | -0.0719
4 | HMETGNEDYRVGKELAYDGNYKAATIYLMKSIKDDPNNPDAFNMLGFSHRKLGNNDEAYIYYNKALEL | -0.275
5 | HMETKKEIIEAINELEEKYRNAIYLTSIEKLSYEETSKILGQSLSNTKNLIHRGKQQLRKILIKK | -0.772
6 | HMETLEDHRKKTRQQLFDALSHLLQTSTFESLTMAKIAEEAGVGRTAVYNHFQDKEALLLAFITYETGQ | -1.74
7 | HMETLETYTSRLRQLEDITNNFKGVDKSFAIQAGREIRVMVVPEQVSDADMILMARDISKAIEAELEYPGQ | 0.0937
8 | HMETLGADLRALRKSRGLTLLDMAESLGRSVGWLSQVERDLSDPSISDLREIAELLGVPISMLFRH | -2.83
9 | HMETLKEMDSKGAINASEVNVREGAGTSSSKMYSLSKGASVDVTGIKGDWYRVHTSKGTGYVLAKYVTLVS | -0.29
10 | HMETLYGQIVNDIMEKIESNAWPVGYVIPTESDFQKQYGVSRATVRNAILKLAHLGYLVRKKGSGTYVTRP | -1.25
11 | HMETPEIPGLTPRQVEIMLLVGKGYSNKEIARFLTISPETVKTHLKEVFLRFGLRNRVEAIDFTRQNGL | -0.656
12 | HMETPLSAADFKIVFGEEYEIGTDANGLPKMGSRINRQLQNRFLTWASVNKRKATMSAYQDWVASDPAAQ | -0.323
13 | HMETQVKVPNVVGMTQSKAIAKLKESKLDYEVQEQKHDGDKGKVVDQSEAEGTYVDRGTKVIIYVSTGE | -0.437
14 | HMETSIQFIRLEIGHNHPWVNQTLKEIPTIPGTLIAAVLRGDEDQAIIPKGDTLLKEGDSVIIGAKEYQD | -1.42
15 | HMETSLVIQIDGAVNSPGIYQVTPGTRIFEALELAGGVREDAQTEALNLALPVYDGQRISIPSSFA | -0.153
16 | HMETTVSYSGVVTASVLRIRKGPSVSSSVAGTLKKGTGVSIIFEDNGWGKLADGSGWVSLTYIKKNSTP | -2.33
17 | HMETWDQAYETIKQNILNLTYPPGMPLTEAKLAEELGMSRSPVRTALRMLQTDGLIVTDYYKSMTVKEI | -1.95
18 | HMETWKLYKRAYKKYYARYMKGNMSEADFKAWATQAAADRDAAIEQITPEIDAALKAQIIEQLREKLNR | -1.11
19 | HMEVAAAENYRSKLSSFAKDTISVWQTELLLGTISDDDKASLTEWMAYIKALQVVDTSDPESITWPTEPT | -1.14
20 | HMEVAASEQRDNLWALARRVLSGEQYDVLYLRYVEDFSVAQIADVVGKTQTHVKVLLFRGRNNLGSRLRS | 0.0441
21 | HMEVENAQLLARLTPQEHRVFERVVAGLSNREIGSEMDISIKTVEVHRARVMRKLEANSVAELVRFHIHN | -2.37
22 | HMEVGDTYLGKVTRVSSFGAFIEVLPGKEGLMRQNDAGEGGMPEVGDEVMVRVMEVDHLGRINLSGKLDD | -0.102
23 | HMEVGKRIAEIRKENRMSQEQFGQLFHVTRQTVSNWENAKSYPDLQTLVKISELFEITMDELLK | -1.45
24 | HMEVKVSGHLEAIGGVYHMKLSWIDDAGKRRRKSKSTGLAERGNKKRANDMLIDFMREQEAEIAASGD | -2.05
25 | HMEVLSKRGSTGTEVINIQKKLKNWGYYTGSVDGIYGKLTEEAVRYFQRTNGLTVDGIAGKNTLAAMGIA | -0.619
26 | HMEVNLEPLIALLRKHRDLDLSGYSKSTLGRRITYFMGLNKISSIDELGRRLAEDDLLFQEFLDKLT | -0.264

Row | Sequence | soluble fraction (log2)
27 | HMEVSLEDKMDYLTNYATTHKNFSFRNLLESSSGKIEVIVTFLAILELMKMGRINISQEHIFDDIIIESRI | -2.68
28 | HMEVSTRQVRAALRDIIEAEDKKRPLSDEAITARLREQGLPVARRTVAKYREQMGILAARLRK | -0.662
29 | HMEVVRVEPGATVRDLGEALGVPPTRIIQILMGLGEMKTVTQTLSTEEIELVAEELGRRVEV | -0.108
30 | HMEWVVVPDVRRQLLPEAQRRVNKARLRLEVAGGWPAEPLLAMVVDQKPGPETRVPLNSIVVVVVRNLP | -0.981
31 | HMEYELYALKEEVLKRLTREDRELLILLFEERRTIHAVAQRLGLSDSAVYKRRTQLVNKVKVIASMLM | -2.22
32 | HMEYKNYYDSPVGRLELLSDGVSLTAVLFENQQGDGTREENTSLAIFKEATQWLDAYFKGDNPEITIPL | 0.0228
33 | HMEYKTGIINTNKVRVRNAADADATVIFAINKDIKVKILAEENGFYKIGVSVKNRGNGEDLIGFVKKELIT | -1.81
34 | HMEYQTVEKSEAEQIIQELEKAERLALKVYSKNDIITGISVSDGKSYYFSAELVPMLKNIIENPEIKIL | -0.795
35 | HMEYRVRDKMTDILELLTEHRGRIALRDAFPTGTREELLAAFLALLELTKMQTVIVYQDRLYDDIQIVMK | -0.354
36 | HMEYSTLEIYSQTKKDLIEKSPHLNKVVYDKDDGYIYLLSFEKEDDLTSFKSNIENDSDIKRIEANV | 0.121
37 | HMEYTVNRLAQISGVSKRTLRYYDEIGLLRPERVNPNGYRIYGQMQVDLLQQILFYRELGLPLEEIREII | -0.502
38 | HMFAATGVVNAPSGLVLRETASKGGNPLATVPDKAQVEIVEEDGEWYKVKVNEQTGYLFAEFVNKTE | -0.0895
39 | HMFAQDQLFKKDNSKVDVKILEINTTEIKYKLFTYQDGPTITVAKKDVALIIYQNGVHEVIT | -2.53
40 | HMFAVPAPEVDDILSEKKVDVLLLGPQVRYLLEQFTEKLKDKNIPIGVIPMVDYGMMNGSKVLALAEELIG | 0.131
41 | HMFDFGNHLRMLREKHGISQEELGRRVGRAGSVISNYENNIKIPTLDVLTTMARIYDVSLDYLVG | -1.59
42 | HMFDFNNLSSLSDVELSVYRFVVNNPEKVAYMRVRDIAQKTHVANSSVMRFVHKIGFASFPEFKAYLKNIN | -0.997
43 | HMFDITKEVLKQSGLYNLYKNDESLEGINRIQNIEELLNGIKDFVENNEKSQASVSSFLQDVALATDQ | 0.258
44 | HMFDKVSVNNLAEAIGRLDGIYQDVLRLYYVHELPSKEIGKILNINHLTVNTRLKRAREKLFKMLKEE | -3.11
45 | HMFDNPLSERDKEILNHISMGKSNKEIANQVGLAEQTIKNTISVILDKTFTSNRAQAASMATKNKW | 0.666
46 | HMFDPTDLPEKQLMVYEIIKSNNGINMTNIASLLGFNKTTVDNAIRALKKKEIVVFKGTNRSGGYFNT | -1.91
47 | HMFEDEYLETMYAFYETDPQALVRTGDLASSLKVSPASATEMVQRLASKGFVDYIPYKGASLTELGLAM | 0.0785
48 | HMFEDYLRMKGLSIVSFSKQTGIPISTLRNLNKIRYDKWKIRYLEELSNVLNKTIQEIIEELKNMG | -3.5
49 | HMFEFFKGIYSISLLKKDGIFFVTFKDENKEAVKHIFPEKPTALELGIKVMEMFEYKERYDGII | -0.455
50 | HMFEPLTDREREVLQALADGLSDKEIAERLYISPATVRTHITAILGKLDANSRLQAVVVAARHNLVTL | -0.478
51 | HMFERISELLTDEELAVYKRGRNANASSVPKHADIADYRRATGVEALFGYLYIKGEIDRINQLFELA | -0.154
52 | HMFESQYIGKIATAITDISAFSGRLKIYDENWEARTLGEDAPEIKKGAKVKIVRHDDLTMFVEKK | -0.397

Row | Sequence | soluble fraction (log2)
53 | HMFETLVLALAQAWPAERGPVEALQFEGGRLSLQRSGFADEQVEALRQRLSSEGWTLQTEQGRLILNKAG | -1.17
54 | HMFFDSDTDIQNALNAENSIKKYQLFRTQTLYNSAQSDIDFVNQPEVKAKLFDALENLKNKLGFLAEPT | -0.0329
55 | HMFGIEIPEEAGKLQDYTLTDDDLEGGNTLKEIQFPQGARVVIIRRDDKFIIPDGSVELQSGDQLLIIYGE | -1.59
56 | HMFGSKDVKRAIEDYAAAMSSQPRALSAPQRKVLIRHLATSGLLQLRGAAKIVADELGISRASVYNALKV | -1.53
57 | HMFHDPTMEETLINLKGITNEVLSLLSSSKIKKLEDLAEMSVPELRDIVENISDEEASALIMEARKPWF | -0.22
58 | HMFHGEGVQANNIQAYIVLKMAAVNGAEDALDTADEVSEKMSREDLETATQVLGQIFRKYLMELQSA | -1.22
59 | HMFIKVEVPDLTGMTLTEVRKALEEKNLKMGDIRPAGQTSLVAKVINQSPQAKMVVDEYSEVSIQFEE | -0.985
60 | HMFIMQTVALGSEGPDVRALQSILNRIGYNAGTVDGIFGSRTRQAVIAFQRNNGLAADGVAGPATWG | 0.188
61 | HMFINITAITGNNYNTPDAARNALPNTYNKKIGLVFTYRDLTNRYRVYLYNSETSNYIPLDSYM | -3.5
62 | HMFIPGDSVRVHVKVVEGSNERIQMFEGVVIARQGSGVRENFTVRRISYGVGIERTFPVHSPRL | -0.226
63 | HMFISVDGLIHMGRTHLVILGGVEFARGDMIPETGEVVKSIGADSVVLELPDTGMRRTLNFV | -2.97
64 | HMFKINNIIVSGLSEKSNLQTSEEIKNILFENIFFIKKDVLFKILEKNNLINSFEIKKIYPDTIEVKIKKT | 0.0453
65 | HMFKITNTLNKTAEVYLTIPENKKGKGKIMISVNGAFHELEAMTENDKIQSGAVVKVVRIENDNILIVET | -2.18
66 | HMFKMRVNGKEVIGMAITAKPQANPIDVADEIKKFVIDANTKLPSTMKLEVLYDATGIFRASISEVIS | -1.08
67 | HMFLDKDTLNQLYRFGIALTGNEQDSQDVLHTAIERFLRNKPQQINQQAAYIRTIMRNYWYDELRKLKTQ | -3.06
68 | HMFLPETEVKSFFHRGITKISPSLAMDIADFFRMPFAVILKRALALEVISDEQYRSFMTVKPEHV | 0.137
69 | HMFLSQQDINRANAASVTDMGDIIRRTFERNAAEINGLELSDAEKKDAVKQMATLATTALKTAAGAVNPY | -0.0457
70 | HMFLSSEERRERIIEVLRQQDEVTVVELSHRLGVSEVTTRKDLQQLEEQGYLTRVRGGAVVSGRGQL | -0.0348
71 | HMFMNFAEHLMALRKQRGWSQEELGSQIGVTRQTVSKWEMGQSTPELEKLVELSRLFGMSIDQLVGL | -0.118
72 | HMFNISEKLKKYRNALGLTQTEVAEKIEITKPTYASYEKGKDISIGTLKKLADLFEVSFESFFSE | -0.283
73 | HMFNLFPHLSVLRNITLAPQKVKGLNRSESNEIAMSLLERVGIPEQSDKFPSQLSGGQQQRVAIARALAM | -0.502
74 | HMFPELSEEEQIIVSLLQKQPDGLQINTLVVESNIPVNRMSGILFELEMKGIIRMAAGGVYRLL | -1.35
75 | HMFQEGLVAPPAYTRPESFRGWEVPEILRSGNFPAIAKWQHEESLRLTRERRPAMLEAYERRT | -0.107
76 | HMFQNYTDAVVVASKTFFYNMPDESTRKSAYLIQGDRIMVEKSQRNFVYVTFTNEASGRTTTGWLKSDDLE | -2.65

— the domain aggregation screens of Martell et al. (2025)
